Settings in all cases: domain or fragment
For experiment [1], the target named is Recombinant human FcRn conjugated with biotin (human) (UniProt P55899). Nature of the experiment: SPR; heme-ox-exposed Fc, pH 5.4.
For experiment [2] the target is unchanged. Nature of the experiment: SPR; heme (Fe3+)-exposed Fc, pH 5.4.
Experiment [3] shares this target. As to the kind of experiment: SPR; native Fc, pH 5.4.

Recombinant human FcRn conjugated with biotin (human), sequence (P55899 24-297): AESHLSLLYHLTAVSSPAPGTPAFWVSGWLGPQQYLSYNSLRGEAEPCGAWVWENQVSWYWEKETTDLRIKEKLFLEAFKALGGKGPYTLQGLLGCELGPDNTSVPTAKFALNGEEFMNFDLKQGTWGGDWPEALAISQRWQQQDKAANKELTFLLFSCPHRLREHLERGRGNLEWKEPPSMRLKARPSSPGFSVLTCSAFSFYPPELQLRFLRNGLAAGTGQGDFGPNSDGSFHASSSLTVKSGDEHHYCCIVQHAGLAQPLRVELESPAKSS

Regarding “Fc-γ fragments obtained by papain digestion of polyclonal human IgG”, the Kd in experiment [1] came out at 8 nM; in experiment [2], 7.7 nM; in experiment [3], 9.1 nM. Further, the results for the koff in experiment [1], in experiment [2] and in experiment [3] were 0.00367 s⁻¹, 0.004 s⁻¹ and 0.00415 s⁻¹, respectively.

The values above are taken from paper PMC9960230.
